Experiment: soluble fraction after stress (log2 fold change); higher = more stays soluble; pooled small domains, quantitative proteomics
Conditions: stress: 75 degC
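Note: 20 min heating vs room temperature control held 20 min.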

| Sequence | soluble fraction (log2) |
| --- | --- |
| HMKNLKPSTEVILKELVKRYPDQTEFRKQQIVDVGQSFGYKGKDYGPIFDADNRVKIGTYDLAGLIVPLQR | 0.0472 |
| HMKNLNVIDLSALRTLELKESSDWTLIQKRFKLLVKKYHPDMNAGSKQYEEKLKKITLAYTHLKKLF | -2.67 |
| HMKNQQLFNIGDRFQVDGVAYRMEKLFPENGTVEVYNLGVGRHKTMSFEEILALWNSGKLLFEI | -0.966 |
| HMKNSIKLDNFVGMSYDEVISNKEYDFNFVSAFEKTSDYEAGTIIGQTPAAEERVMVGTTVTLTVAQP | 0.491 |
| HMKNTADRVYENLFHMLVSGDYAPGDRIPSEHELKERFNVSRNTIRAALNRMNALGIIETRQGDGTYLKG | -0.472 |
| HMKNTFGLTEREMEVLALIVDGLSNPEIAEKLFITRATAKAHVHSILQKLYVDDRTQAAVTAMREGL | -2.21 |
| HMKNTIPVPHIIGLSEQEARETLERAGLQLNVIKTEPNTKYESGQVTDTNPNEGIKVPKGTIVNVVLADS | -0.0118 |
| HMKNTLDAYIRYLSNFLSRNNYPEAEDLSFINARADQAYEVFLEARRGGVDVSTAEELAMIALMQGY | -2.34 |
| HMKNVEEMILGKLKRKVSENLENASFEEIILVDAEKSVYKGIIKANYIEYYFRVNLSTGEVLSWKLK | -0.86 |
| HMKPAFTPYVVKVTADVLNVRSGPGTNYGITTKVKKGEAYTIVEEKNGWGKLKSGAGWISLEYTVK | -1.09 |
| HMKPALFSADELNRLYRYGLSLTGERDRAYDLLQTALEKYLRQSQAPANAMRYVRKIMHNQFIDDYR | -1.53 |
| HMKPDWLSDGRLIPDEVMSHLRKIAVHAVEEMGYSPEDVIKILGLSRNTIYDWLKRFREHGYEGLDTKK | -0.957 |
| HMKPLAQQVNDYLAATRTSIATLANEIPGYSRPTISRYLAGKYDGDITTIEKLLAEWLAQRTG | -0.832 |
| HMKPNEYVSGETFPYLGKNYRLKVLHGSENSVRLKGGYFITTISNRDSQLSTVKSLLEDWYQTHADK | 0.043 |
| HMKPPTIELSYSEFIELVERGKVSKVIFSSDNYTLKGETVNGENFETVRPPFLEDNLSEILTIHKVPVSSE | -0.109 |
| HMKPSKTVYTTANLNLRNGASMSAAVYTSVSRGTALATTGRTTSGWTQITHRGRTLWASSKYLTTTTPP | -3.17 |
| HMKPSNRSYPTALRMEVIGIIRERYADFGPTLAGEKLAELHGIHLGRETIRQWMMAAGLWKDRR | -1.09 |
| HMKPTVKVPNVVNLSLRNAQIQLQNYGLEVGSISYESSRFKNAVLRQSISEGSVVEKGTTINLVISDGL | -1.56 |
| HMKPVPPLNGTSLRDLALGYAGRYATTAARLKHYLQRKLRERGWGGEDEPDLDGLVARLVELGYVNDEVF | -0.704 |
| HMKQAINFSDLNSLEEGLGIAIRQKWNEVSINDVPEDKIELVEDWINNNRGKYKGINISIGSTY | 0.114 |
| HMKQAVESAEAIFEEIARIKKLSLVKSEAEEIARKTGLQKFTIASQLLKNQHAYEMDESEIASLWDKKI | -0.0597 |
| HMKQDFVYNGFVEAKGDDLMVQINYKGETYYVTEGESFGGFTVKSANKDKVVLSGQGGAETVLEFR | -0.186 |
| HMKQENRLKILRKEKGLTQTKLANEIGVSKRTIIAWENDERQIKPDKAQQLADYFGVKEGYLLGYTNN | 0.114 |
| HMKQESSEDLLNEVIDKVIDSNPDEKNRLLDGELKLVSFFMGQVMKETKGKANPGVINGLIKKKFNI | -0.701 |
| HMKQISNTDELEAMIQKIIEDNSQQVEKFRSGNEKLFGWFVGQVMKNTQGAANPKVVNEILKKSLK | 0.318 |

| Sequence | soluble fraction (log2) |
| --- | --- |
| HMKQISNTDELESMAKNIIQENPDQVSKFKNGNEKLFGWFVGQMMKSTGGTANPKVVNEILKNLLN | 0.134 |
| HMKQLIGYSVIDIKMGKLGEISFVNSKTAQALIHVSKDGKGFYFPWHKQFVKNIDAEKGIMEVEIPKEFLD | -0.974 |
| HMKQLNKRQNDILSFAEKQGYVSVENLAKLFSVTQQTIRRDINYLSDNELLVRTHGGAYYSS | -1.18 |
| HMKQNRNLPVQIINNGKIIESVMTEFNLDIDWVYSEAKRLGYKNIKDIFYAGINRDGQFFIVPLF | -3.06 |
| HMKQNVEAVIKERAIEKARAQVKAVSTHMALEAQSLSKEQLEFEIERIAAQIIDKMPSDFWND | -1.28 |
| HMKQPNFTVIETKILELLFQKDLSSREMQEILKISKDNLIFALQNLLEQEKIVLQTSNTYTVN | -1.88 |
| HMKQPVPDEIYFKRLANATEALGRYPRASERKKFGLNMSKRRYPTLTDFINKAIELGYVEDFR | -0.833 |
| HMKQQAYEQGKAAYQSGDWLRAVTQLGQVKEAGEKNGEVDHLLGNAYMKLGQFESAAYAYNSALEDVA | 0.53 |
| HMKQTMIVVMEKDAPQSQIDDMVKRIEGLGLKAHTIVGTQRTVVAAIGEKREDTRESLAGSPGVAEVVPIL | 0.239 |
| HMKQYVEPASETEKMVVELWEKVLLTEKIGMHDDFFELGGHSLKAMRLISLYHQEFNVRLSLKSLFEKLK | -0.241 |
| HMKRAVGLDEYRDSIVLKKPEGYTEESYAAYKNAYDALMALDSKETTAEMFANAKSAFEAAQAGLVQKP | 0.119 |
| HMKRIFEKKVVTESLNGLRLDKAAATLFADFSRNELGQWIKDEALLVNGKAKKVKEKVSEGDVLALDVELI | 0.203 |
| HMKRISDEDLLVMRRIDEVHTYHPTWGYRTITRILRRDDHLLINPKKVRRIMRDMGIYTIYPK | -0.0338 |
| HMKRITAVISQKKGRDYYYIIVSYYLSNGKRVQRWIKTEFPINGNNKRKLEQKRIEVLQEWQDKLV | -1.23 |
| HMKRLQEQAYDYLKELILSGKMIENEIYSETKLASEIGISRTPIRDALQRLSQDGFIDIIPSKGFRIH | -0.734 |
| HMKRMSKKQLSAVIEKYFSSQPGVTLTLKDIFRNLHLDTHPLKMIALDILEEMSWDDVIMKVSDTSYALNT | 0.194 |
| HMKRNLESVLDHIEGIGPKRRKALYKHFGNLDAMRVAELEELESVEGMNKKAALAVYEFFRRNS | 0.386 |
| HMKRNTKAEVLEILLNSGETPVSGERLAENLGISRNAVWKAVTALKEDGYNISAKRNSGYILNKS | -0.143 |
| HMKRREENLRRLALSTAERVKRKGKKEILNPMSPQERRIIHLTLQNNKEVVTHSEGEDPYRRVIISPRN | -0.397 |
| HMKRRSLQVGDIVQVRSLNVKGEVVSIGKNEVVVAVGRLQMRAGFDDLDFKERPKEEREVESV | -0.467 |
| HMKRSFGSVRQLRSGNYQARYTGPDTVRHTSPVTYTSKMDAEAWLVDERRKISSGTWTPPAR | -0.193 |
| HMKRSVIVTAERAEVRQKADEGSALVFEAEKNVSLEYLEAAPGGWVKVRHLDGQSGFVRGNQI | -0.309 |
| HMKRTKLEEATEWLRDRLSDGVKYNGEELLREGESADMARRTLRRAAQELGVIIERERGARGRWFWSLP | -0.897 |
| HMKRTLLLEGRTIPYELTQKPVKNINIRVHADGSVRVSAGPWVSPEAVDAVLRQRSAFLLRALDQFAAQAP | -1.91 |
| HMKRVPFAFAGDMLRWAAWLYHVEKRTQNEIAEELEVSRQTVANYLSEAMSQGLVQVQLRSDIIE | -1.98 |

From the domain aggregation screens of Martell et al. (2025)
